In the series the test system is Escherichia coli TOP10. The series can be described thus: shrunken log2 fold change of peptide-encoding DNA abundance (4.5 h post-induction vs induction); higher = less antimicrobial activity (less host growth inhibition). As to conditions: time post-induction: 4.5 h; library: site-saturation at positions 5, 18, 19, 20.

Data on 125 sequences can be found in the supplement of paper PMC9112550, “Optimization of the antimicrobial peptide Bac7 by deep mutational scanning” (BMC Biology, 2022).
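Further: peptides expressed intracellularly from a pBAD plasmid library in pooled LB shake-flask culture, induced with 0.3% L-arabinose, DNA abundance read by NGS, three biological replicates, DESeq2 with apeglm shrinkage.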

Turning to RRIRQRPPRLPRPRPRPANLPRP, the “shrunken log2 fold change” value stood at 0.164. With RRIRWRPPRLPRPRPRPELRPRP, the “shrunken log2 fold change” value was determined as 0.0333.

On to RRIRNRPPRLPRPRPRPFNNPRP, for which the “shrunken log2 fold change” value is -0.193. With RRIRFRPPRLPRPRPRPKNHPRP the figure was -0.347; with RRIRSRPPRLPRPRPRPKWKPRP, -0.0184. Next, RRIRARPPRLPRPRPRPLTVPRP: 0.242; RRIRHRPPRLPRPRPRPGIAPRP: -0.0902; RRIRHRPPRLPRPRPRPMTEPRP: 0.0178.

With RRIRPRPPRLPRPRPRPQWRPRP, the “shrunken log2 fold change” value was found to be 0.308.

Take RRIRYRPPRLPRPRPRPHPPPRP: the “shrunken log2 fold change” value worked out at 0.374. With RRIRSRPPRLPRPRPRPMHMPRP the figure was -0.13. With RRIRPRPPRLPRPRPRPMSSPRP, the “shrunken log2 fold change” value is -0.135.

For the sequence RRIRRRPPRLPRPRPRPGMKPRP, the “shrunken log2 fold change” value is -0.133. Next, RRIRPRPPRLPRPRPRPNIVPRP: -0.342; RRIRVRPPRLPRPRPRPYHKPRP: -0.0829; RRIRMRPPRLPRPRPRPRPMPRP: 0.935. Next, RRIRDRPPRLPRPRPRPVDIPRP: -0.0995; RRIRDRPPRLPRPRPRPYYMPRP: -0.399; RRIRARPPRLPRPRPRPQRKPRP: 0.365. For RRIRMRPPRLPRPRPRPKMAPRP, the “shrunken log2 fold change” value stood at 2.29.

Take RRIRFRPPRLPRPRPRPPENPRP: the “shrunken log2 fold change” value amounted to 0.102. Regarding RRIRKRPPRLPRPRPRPDVNPRP, the “shrunken log2 fold change” value came out at 0.139. Consider RRIRNRPPRLPRPRPRPDTGPRP, for which the “shrunken log2 fold change” value is -0.0135.

Take RRIRERPPRLPRPRPRPHTMPRP: the “shrunken log2 fold change” value was -0.0656. Turning to RRIRPRPPRLPRPRPRPCCHPRP, the “shrunken log2 fold change” value was determined as 0.0505.

Take RRIRLRPPRLPRPRPRPAEKPRP: the “shrunken log2 fold change” value is -0.0786. Consider RRIRWRPPRLPRPRPRPGFAPRP, for which the “shrunken log2 fold change” value was determined as 0.382.

Consider RRIRFRPPRLPRPRPRPENHPRP, for which the “shrunken log2 fold change” value is -0.84. Regarding RRIRPRPPRLPRPRPRPFYKPRP, the “shrunken log2 fold change” value was -0.25. On to RRIRGRPPRLPRPRPRPYRKPRP, for which the “shrunken log2 fold change” value amounted to 0.176. RRIRYRPPRLPRPRPRPDGKPRP: the “shrunken log2 fold change” value is -0.01.

As to RRIRVRPPRLPRPRPRPFWSPRP, the “shrunken log2 fold change” value was 0.0887.

Take RRIRMRPPRLPRPRPRPKPKPRP: the “shrunken log2 fold change” value is 0.476.

On to RRIRMRPPRLPRPRPRPWNDPRP, for which the “shrunken log2 fold change” value was -0.112. Take RRIRTRPPRLPRPRPRPRNSPRP: the “shrunken log2 fold change” value was -0.193. As for RRIRVRPPRLPRPRPRPKCCPRP, the “shrunken log2 fold change” value was -0.0953. With RRIRFRPPRLPRPRPRPSMTPRP the figure was -0.227.

Turning to RRIRPRPPRLPRPRPRPYFDPRP, the “shrunken log2 fold change” value is -0.561. With RRIRTRPPRLPRPRPRPESYPRP the figure was -0.0242; with RRIRSRPPRLPRPRPRPYFYPRP, -0.695.

As to RRIRQRPPRLPRPRPRPLERPRP, the “shrunken log2 fold change” value came out at 0.0228. As for RRIRPRPPRLPRPRPRPPRFPRP, the “shrunken log2 fold change” value came out at 0.557.

As for RRIRQRPPRLPRPRPRPAREPRP, the “shrunken log2 fold change” value was -0.0167. Regarding RRIRVRPPRLPRPRPRPCCWPRP, the “shrunken log2 fold change” value was -0.087. In the case of RRIRRRPPRLPRPRPRPYMVPRP, the “shrunken log2 fold change” value is -0.361.

On to RRIRARPPRLPRPRPRPFIIPRP, for which the “shrunken log2 fold change” value was -0.264. With RRIRVRPPRLPRPRPRPMSGPRP, the “shrunken log2 fold change” value was -0.0469. For the sequence RRIRIRPPRLPRPRPRPHWDPRP, the “shrunken log2 fold change” value is -0.248. Regarding RRIRFRPPRLPRPRPRPHQDPRP, the “shrunken log2 fold change” value was -0.0339.

As for RRIRWRPPRLPRPRPRPLAQPRP, the “shrunken log2 fold change” value was 0.469. Next, RRIRKRPPRLPRPRPRPLTRPRP: 0.31. As for RRIRGRPPRLPRPRPRPLFNPRP, the “shrunken log2 fold change” value came to 0.117. As to RRIRKRPPRLPRPRPRPYMAPRP, the “shrunken log2 fold change” value was -0.0833. As for RRIRIRPPRLPRPRPRPETSPRP, the “shrunken log2 fold change” value was -0.239. With RRIRKRPPRLPRPRPRPCQNPRP the figure was 0.412. With RRIRCRPPRLPRPRPRPHIRPRP the figure was -0.585; with RRIRLRPPRLPRPRPRPGQHPRP, -0.0142; with RRIRSRPPRLPRPRPRPRHKPRP, -0.262.

RRIRMRPPRLPRPRPRPGNFPRP: the “shrunken log2 fold change” value is 0.121.

In the case of RRIRERPPRLPRPRPRPCSKPRP, the “shrunken log2 fold change” value was determined as 0.2. Take RRIRARPPRLPRPRPRPHIDPRP: the “shrunken log2 fold change” value turned out to be 0.205. As to RRIRDRPPRLPRPRPRPREHPRP, the “shrunken log2 fold change” value was -0.118. On to RRIRVRPPRLPRPRPRPKVHPRP, for which the “shrunken log2 fold change” value is -0.192. With RRIRCRPPRLPRPRPRPLREPRP the figure was 0.562; with RRIRFRPPRLPRPRPRPQKKPRP, -0.0897; with RRIRCRPPRLPRPRPRPMCGPRP, -0.0984. With RRIRTRPPRLPRPRPRPIIVPRP the figure was -0.0629. For the sequence RRIRCRPPRLPRPRPRPIIVPRP, the “shrunken log2 fold change” value is -0.425. As for RRIRCRPPRLPRPRPRPCYGPRP, the “shrunken log2 fold change” value is -0.28. With RRIRMRPPRLPRPRPRPEMIPRP the figure was 2.2.

Regarding RRIRCRPPRLPRPRPRPWLIPRP, the “shrunken log2 fold change” value was -0.564. For the sequence RRIRFRPPRLPRPRPRPELKPRP, the “shrunken log2 fold change” value was -0.0455. For the sequence RRIRARPPRLPRPRPRPNEDPRP, the “shrunken log2 fold change” value is 0.334. With RRIRFRPPRLPRPRPRPYYYPRP, the “shrunken log2 fold change” value was -0.392. Next, RRIRHRPPRLPRPRPRPVWGPRP: 0.479.

Turning to RRIRPRPPRLPRPRPRPGAFPRP, the “shrunken log2 fold change” value stood at 0.293. For RRIRIRPPRLPRPRPRPARAPRP, the “shrunken log2 fold change” value was found to be 0.307. As to RRIRIRPPRLPRPRPRPSAYPRP, the “shrunken log2 fold change” value was -0.138. Take RRIRHRPPRLPRPRPRPYPFPRP: the “shrunken log2 fold change” value was -0.772. With RRIRCRPPRLPRPRPRPCAYPRP the figure was -0.153. For the sequence RRIRYRPPRLPRPRPRPKGLPRP, the “shrunken log2 fold change” value is -0.0102.

For RRIRKRPPRLPRPRPRPDHDPRP, the “shrunken log2 fold change” value amounted to 0.0562. With RRIRLRPPRLPRPRPRPICPPRP, the “shrunken log2 fold change” value is 0.00212. Regarding RRIRIRPPRLPRPRPRPTLLPRP, the “shrunken log2 fold change” value was -0.374. In the case of RRIRWRPPRLPRPRPRPFTHPRP, the “shrunken log2 fold change” value is -0.297. RRIRYRPPRLPRPRPRPAISPRP: the “shrunken log2 fold change” value was -0.149. For RRIRRRPPRLPRPRPRPIIIPRP, the “shrunken log2 fold change” value stood at 0.0103. Next, RRIRHRPPRLPRPRPRPHSKPRP: -0.32; RRIRYRPPRLPRPRPRPTHGPRP: -0.1; RRIRDRPPRLPRPRPRPFSDPRP: -0.016. Consider RRIRCRPPRLPRPRPRPAGAPRP, for which the “shrunken log2 fold change” value was 0.417. On to RRIRHRPPRLPRPRPRPVCTPRP, for which the “shrunken log2 fold change” value was -0.108. RRIRWRPPRLPRPRPRPTGMPRP: the “shrunken log2 fold change” value came out at 0.117.

Turning to RRIRPRPPRLPRPRPRPQLVPRP, the “shrunken log2 fold change” value was found to be 0.0126. RRIRMRPPRLPRPRPRPCLYPRP: the “shrunken log2 fold change” value was -0.331. With RRIRHRPPRLPRPRPRPYDAPRP, the “shrunken log2 fold change” value is -0.271. Regarding RRIRARPPRLPRPRPRPQDEPRP, the “shrunken log2 fold change” value was found to be 0.195. Take RRIRRRPPRLPRPRPRPIRFPRP: the “shrunken log2 fold change” value is 0.0747. For the sequence RRIRARPPRLPRPRPRPWSRPRP, the “shrunken log2 fold change” value was -0.151. As to RRIRSRPPRLPRPRPRPLQQPRP, the “shrunken log2 fold change” value was determined as 0.553. Take RRIRSRPPRLPRPRPRPTSAPRP: the “shrunken log2 fold change” value stood at 0.321. As for RRIRDRPPRLPRPRPRPRKLPRP, the “shrunken log2 fold change” value turned out to be 0.0892. For RRIRDRPPRLPRPRPRPMFNPRP, the “shrunken log2 fold change” value was -0.0203.

As to RRIRWRPPRLPRPRPRPIFLPRP, the “shrunken log2 fold change” value was -0.509. In the case of RRIRYRPPRLPRPRPRPLVHPRP, the “shrunken log2 fold change” value is 0.0162.

For RRIRERPPRLPRPRPRPVYEPRP, the “shrunken log2 fold change” value was -0.445. On to RRIRRRPPRLPRPRPRPMMFPRP, for which the “shrunken log2 fold change” value came to 0.284. With RRIRGRPPRLPRPRPRPFFIPRP the figure was 0.0612. Consider RRIRRRPPRLPRPRPRPVYLPRP, for which the “shrunken log2 fold change” value is -0.173. On to RRIRKRPPRLPRPRPRPKMLPRP, for which the “shrunken log2 fold change” value is 0.185.

As for RRIRPRPPRLPRPRPRPRTAPRP, the “shrunken log2 fold change” value came to 0.562. RRIRMRPPRLPRPRPRPPEQPRP: the “shrunken log2 fold change” value was 0.956.

As for RRIRKRPPRLPRPRPRPLEEPRP, the “shrunken log2 fold change” value came to 1.76.

On to RRIRCRPPRLPRPRPRPLCDPRP, for which the “shrunken log2 fold change” value came to 0.54. Turning to RRIRMRPPRLPRPRPRPPIWPRP, the “shrunken log2 fold change” value worked out at 0.512. In the case of RRIRWRPPRLPRPRPRPAGPPRP, the “shrunken log2 fold change” value stood at 0.235. Take RRIRNRPPRLPRPRPRPQACPRP: the “shrunken log2 fold change” value was -0.0265. On to RRIRDRPPRLPRPRPRPEVCPRP, for which the “shrunken log2 fold change” value is 0.0705.

Turning to RRIRYRPPRLPRPRPRPEHIPRP, the “shrunken log2 fold change” value was -0.0114. Regarding RRIRCRPPRLPRPRPRPEFRPRP, the “shrunken log2 fold change” value is -0.0284. Regarding RRIRYRPPRLPRPRPRPSQAPRP, the “shrunken log2 fold change” value was -0.0185. In the case of RRIRLRPPRLPRPRPRPWSRPRP, the “shrunken log2 fold change” value is -0.264. With RRIRNRPPRLPRPRPRPRHHPRP, the “shrunken log2 fold change” value is -0.246. Regarding RRIRRRPPRLPRPRPRPFCFPRP, the “shrunken log2 fold change” value is 0.218.

Consider RRIRQRPPRLPRPRPRPHFGPRP, for which the “shrunken log2 fold change” value was -0.0794.
